Reference: paper PMC7738837, “Synthesis and evaluation of ^68Ga-labeled dimeric cNGR peptide for PET imaging of CD13 expression with ovarian cancer xenograft” (Journal of Cancer, 2021)
Read-outs that look alike come from different tables or passages of the source. Positions of bridges follow the written chain, without caps; N, C: chain ends. Non-standard residues stand in square brackets, D forms with d. Residues, ends and D or L forms follow the SMILES beside them. Chains are numbered I, II in the order given. *: point of attachment. DOTA = O=C(O)CN1CCN(CC(=O)O)CCN(CC(=O)*)CCN(CC(=O)O)CC1; PEG4 = NCCOCCOCCOCCOCCC(=O)O

Key:
[1] = MicroPET imaging and blocking, ES2 tumor-bearing nude mice; conditions: female, BALB/c nude, mouse, in vivo, iv, total radioactivity
Protocol: (§1) The human OVCA ES2 and SKOV3 cells were obtained from Nanjing Keygen Biotech Co., Ltd. (Nanjing, China). ES2 cells were maintained as monolayer cultures in McCoy's medium 5A supplemented with 10% fetal bovine serum (FBS), and SKOV3 cells were cultured in RPMI-1640 medium supplemented with 10% FBS. Both cell lines were incubated at 37°C in a humidified atmosphere containing 5% CO2. Cells in log phase were harvested by trypsinization, washed with PBS twice and adjusted to 5×10^7/mL in PBS. A volume of 0.1 mL single-cell suspension was subcutaneously injected into the front flank of each female […] nude mouse (~4-6 weeks old, body weight of 18-25 g; Slac Laboratory Animal, Shanghai, China). Animal models were used for PET imaging experiments when xenografts grew to 500-1,000 mm^3. All animal-related studies were approved by the Institutional Animal Care and Use Committee of Soochow University.
(§2) Two groups of female Balb/c nude mice (n=6/group) bearing ES2 tumors were used to conduct static microPET imaging with an Inveon microPET scanner (Siemens Medical Solutions, Erlangen, Germany). The first group was injected with 7.4 MBq ^68Ga-DOTA-c(NGR)2 via tail vein under anesthesia with 1%-2% isoflurane, and a series of static image data, 10 min for each time point, were collected at 30 min, 1, 1.5, and 2 h post injection. For blocking studies, the second group of mice was injected with 100 μg unlabeled peptide in 100 μL saline via tail vein, immediately followed by administration of ^68Ga-DOTA-c(NGR)2, and then images were acquired at 30 min, 1, 1.5 and 2 h post-injection, each for 10 min. The obtained images were processed using Siemens Inveon Research Workplace 4.0 (IRW 4.0) and reconstructed using three-dimensional ordered-subset expectation maximization. Regions of interest (ROIs) were drawn over the tumor (T) and muscle of the contralateral forelimb, and the latter served as the background (B). Moreover, %ID/g of tumors and the T/B ratio were determined. The same studies were repeated in female Balb/c nude mice bearing SKOV3 tumors without the blocking experiments.

ES2 cells = assay: In vitro cell binding/uptake assay, ES2 cells; format: cell-based, human; conditions: 37 KBq per well, 37°C
SKOV3 cells = assay: In vitro cell binding/uptake assay, SKOV3 cells; format: cell-based, human; conditions: 37 KBq per well, 1×10^6 cells/well, 37°C, time points 5 min to 2 h, gamma counter, mean ± SD
[2] = In vitro stability in saline/PBS at room temperature (radiochemical purity); format: physicochemical; conditions: ~3.7 MBq tracer in saline (method: PBS), 3 h of incubation, radio-HPLC
in vivo [3] = conditions: ICR, mouse, iv, 3.7 MBq, total radioactivity
in vivo [4] = conditions: female, BALB/c nude, mouse, iv, 7.4 MBq, total radioactivity
Protocol: as §1, §2

## N=C(N)NCCC[C@@H]1NC(=O)CNC(=O)[C@H](CC(N)=O)NC(=O)[C@@H](NC(=O)CCOCCOCCOCCOCCNC(=O)CC[C@H](NC(=O)CCOCCOCCOCCOCCNC(=O)CN2CCN(CC(=O)O)CCN(CC(=O)O)CCN(CC(=O)O)CC2)C(=O)NCCOCCOCCOCCOCCC(=O)N[C@H]2CSSC[C@@H](C(=O)N[C@@H](Cc3ccc(O)cc3)C(=O)O)NC(=O)[C@H](CCCNC(=N)N)NC(=O)CNC(=O)[C@H](CC(N)=O)NC2=O)CSSC[C@@H](C(=O)N[C@@H](Cc2ccc(O)cc2)C(=O)O)NC1=O [^68Ga-DOTA-c(NGR)2, metal not drawn] (I: {DOTA-PEG4}-E[PEG4]CNGRCY-OH / II: [PEG4]CNGRCY-OH; amide I:1-II:N; disulfide I:3-I:7, II:2-II:6)
[1]; 7.4 MBq
  tissue uptake at 1 h: 0.62 ± 0.09 %ID/g
  tissue uptake at 1.5 h: 0.53 ± 0.08 %ID/g
[1]
  tissue to tissue ratio at 1 h: 10.3 ± 0.26
  tissue to tissue ratio at 1.5 h: 8.04 ± 1.75
[1]; microPET, 100 μg unlabeled peptide i.v. immediately before tracer, 1 h post-injection, n=6, mean ± SD, read-out: uptake in ES2 tumors in the blocking experiment
  tissue uptake at 1 h: 0.16 ± 0.03 %ID/g
[1]; microPET, 100 μg unlabeled peptide i.v. immediately before tracer, 1.5 h post-injection, n=6, mean ± SD, read-out: uptake in ES2 tumors in the blocking experiment
  tissue uptake at 1.5 h: 0.14 ± 0.02 %ID/g
ES2 cells; 1×10^6 cells/well, after 2 h of incubation, gamma counter, mean ± SD
  highest binding to ES2 cells: 3.00% ± 0.59
ES2 cells
  time to almost saturated binding to ES2 cells: ≤ 30 min
SKOV3 cells
  highest binding to SKOV3 cells: 1.79% ± 0.34
Normal ICR mice; 30 min post-injection versus 5 min
  decrease of kidney uptake from peak: more than 50%
Normal ICR mice; 120 min post-injection versus 5 min
  decrease of kidney uptake from peak: > 85%
[2]
  radiochemical purity after incubation in saline: > 96%
In vivo [3]; blood
  tissue uptake at 5 min: 7.44 ± 1.64 %ID/g
  tissue uptake at 1 h: 0.31 ± 0.05 %ID/g
In vivo [3]; kidney
  tissue uptake at 5 min: 16.7 ± 5.8 %ID/g
In vivo [4]
  tissue to tissue ratio at 1 h: 3.99 ± 0.18
  tissue to tissue ratio at 1.5 h: 4.24 ± 0.73
  tissue uptake at 1 h: 0.32 ± 0.03 %ID/g
  tissue uptake at 1.5 h: 0.24 ± 0.05 %ID/g
